Experimental data published in FireProtDB (doi:10.1074/jbc.m304177200).

B1: Guanyl-specific ribonuclease Sa, P05798 (parent)
chain: DVSGTVCLSALPPEATDTLNLIASDGPFPYSQDGVVFQNRESVLPTQSYGYYHEYTVITPGARTRGTRRIITGEATQEDYYTGDHYATFSLIDQTC

Variants of: B1
Details: Kitasatospora aureofaciens, pH 7, Thermal, CD, MOPS 30 mM, reversible: yes(>95%), structure 1RGG, whole UniProt chain shown; for ddG of mutation (higher = less stable): 48.4 °C

| Variant | ddG of mutation (higher = less stable) [kcal/mol] | Tm [°C] | change of melting temperature, mutant - wild type (higher = more stable) [°C] | unfolding enthalpy (van 't Hoff) [kcal/mol] |
| --- | --- | --- | --- | --- |
| DTSGTVCLSALPPEATDTLNLIASDGPFPYSQDGVVFQNRESVLPTQSYGYYHEYTVITPGARTRGTRRIITGEATQEDYYTGDHYATFSLIDQTC [V2T] | 0.9 | 45.2 | -3.2 | 86 |
| DVSGVVCLSALPPEATDTLNLIASDGPFPYSQDGVVFQNRESVLPTQSYGYYHEYTVITPGARTRGTRRIITGEATQEDYYTGDHYATFSLIDQTC [T5V] | 0 | – | – | – |
| DVSGTVCLSALPPEAVDTLNLIASDGPFPYSQDGVVFQNRESVLPTQSYGYYHEYTVITPGARTRGTRRIITGEATQEDYYTGDHYATFSLIDQTC [T16V] | -0.3 | 49.4 | 1 | 88 |
| DVSGTVCLSALPPEATDVLNLIASDGPFPYSQDGVVFQNRESVLPTQSYGYYHEYTVITPGARTRGTRRIITGEATQEDYYTGDHYATFSLIDQTC [T18V] | 1.4 | 43.7 | -4.7 | 80 |
| DVSGTVCLSALPPEATDTLNLIASDGPFPYSQDGVTFQNRESVLPTQSYGYYHEYTVITPGARTRGTRRIITGEATQEDYYTGDHYATFSLIDQTC [V36T] | 1.3 | 43.8 | -4.6 | 88 |
| DVSGTVCLSALPPEATDTLNLIASDGPFPYSQDGVVFQNRESTLPTQSYGYYHEYTVITPGARTRGTRRIITGEATQEDYYTGDHYATFSLIDQTC [V43T] | 0.5 | 46.8 | -1.6 | 93 |
| DVSGTVCLSALPPEATDTLNLIASDGPFPYSQDGVVFQNRESVLPTQSYGYYHEYVVITPGARTRGTRRIITGEATQEDYYTGDHYATFSLIDQTC [T56V] | 1.9 | 42.1 | -6.3 | 85 |
| DVSGTVCLSALPPEATDTLNLIASDGPFPYSQDGVVFQNRESVLPTQSYGYYHEYTTITPGARTRGTRRIITGEATQEDYYTGDHYATFSLIDQTC [V57T] | 4.4 | 33.4 | -15 | 74 |
| DVSGTVCLSALPPEATDTLNLIASDGPFPYSQDGVVFQNRESVLPTQSYGYYHEYTVIVPGARTRGTRRIITGEATQEDYYTGDHYATFSLIDQTC [T59V] | 1.7 | 42.8 | -5.6 | 81 |
| DVSGTVCLSALPPEATDTLNLIASDGPFPYSQDGVVFQNRESVLPTQSYGYYHEYTVITPGARTRGVRRIITGEATQEDYYTGDHYATFSLIDQTC [T67V] | 0 | 48.3 | -0.1 | 88 |
| DVSGTVCLSALPPEATDTLNLIASDGPFPYSQDGVVFQNRESVLPTQSYGYYHEYTVITPGARTRGTRRIIVGEATQEDYYTGDHYATFSLIDQTC [T72V] | 0.2 | 47.6 | -0.8 | 91 |
| DVSGTVCLSALPPEATDTLNLIASDGPFPYSQDGVVFQNRESVLPTQSYGYYHEYTVITPGARTRGTRRIITGEATQEDYYVGDHYATFSLIDQTC [T82V] | 1.7 | 42.7 | -5.7 | 81 |
